The target of test [1] is T1, CD36 (His-tagged recombinant human protein, Sino Biological, Life technologies, 70-80 kDa) (human, UniProt P16671 30-439). The experiment in a line: SPR; recombinant 1; kd1 of two-state fit.
In test [2] the target is T1, CD36 (His-tagged recombinant human …). The experiment in a line: SPR; recombinant 1; kd2 of two-state fit. (SPR reads the build-up and loss of mass on a sensor chip optically.)
Test [3] has the same target. Kind of test: SPR; recombinant 2; kd1 of two-state fit.
For test [4] the target is unchanged. Kind of test: SPR; recombinant 2; kd2 of two-state fit.
Test [5] has the same target. The experiment in a line: SPR; kd1 of two-state fit.
Test [6] has the same target. Kind of test: SPR; kd2 of two-state fit.
The target is the same in test [7]. Kind of test: SPR; native 1; kd1 of two-state fit.
Test [8] shares this target. The experiment in a line: SPR; native 1; kd2 of two-state fit.
Test [9] shares this target. The experiment in a line: SPR; native 2; kd1 of two-state fit.
Test [10] shares this target. The experiment in a line: SPR; native 2; kd2 of two-state fit.

T1 sequence (P16671 30-439): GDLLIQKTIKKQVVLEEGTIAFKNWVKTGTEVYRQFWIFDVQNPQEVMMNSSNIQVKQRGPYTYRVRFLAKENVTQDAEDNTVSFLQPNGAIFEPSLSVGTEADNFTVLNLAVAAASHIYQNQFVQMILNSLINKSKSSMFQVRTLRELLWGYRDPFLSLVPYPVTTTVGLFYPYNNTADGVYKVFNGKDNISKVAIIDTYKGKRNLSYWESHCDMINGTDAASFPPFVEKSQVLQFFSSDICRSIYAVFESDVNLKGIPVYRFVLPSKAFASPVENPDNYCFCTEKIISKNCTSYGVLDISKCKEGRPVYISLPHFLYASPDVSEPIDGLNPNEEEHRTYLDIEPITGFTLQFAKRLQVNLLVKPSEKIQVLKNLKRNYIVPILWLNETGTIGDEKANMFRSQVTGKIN

B1: recombinant S100A12 (rS100A12) (natural protein)
chain: GPLGSMTKLEEHLEGIVNIFHQYSVRKGHFDTLSKGELKQLLTKELANTIKNIKDKAVIDEIFQGLDANQDEQVDFQEFISLVAIALKAAHYHTHKE
By koff is commonly meant a measure of how fast the partners let go of each other. Regarding B1, the dissociation rate constant (koff) in test [1] worked out at 0.0066 s⁻¹; in [2] it was 0.00037 s⁻¹; in test [3], 0.019 s⁻¹; in test [4], 0.00068 s⁻¹.

B2: fluorescein-labeled rS100A12 (natural protein)
chain: B1 chain
modifications: fluorescein (NHS-fluorescein, 15 times molar excess; labeled residues not stated)
With B2, the koff in [5] was found to be 0.014 s⁻¹; in test [6], 0.001 s⁻¹.

B3: commercially available native human S100A12 protein (nS100A12) (natural protein)
chain: MTKLEEHLEGIVNIFHQYSVRKGHFDTLSKGELKQLLTKELANTIKNIKDKAVIDEIFQGLDANQDEQVDFQEFISLVAIALKAAHYHTHKE
As for B3, the off-rate (koff) turned out to be 0.0083 s⁻¹ in test [7], 0.00051 s⁻¹ in test [8], 0.0092 s⁻¹ in [9] and 0.00056 s⁻¹ in test [10].
